Test results reported in patent US20210100916A1, “PREPARATION AND USE OF MITOCHONDRION-TARGETING SELF-ASSEMBLED PROTEIN NANOPARTICLE” (PEKING UNIVERSITY, priority 2018, published 2021).

Key:
U87MG cells = test: ROS content in cells (DCFH-DA probe, confocal imaging); format: cell-based; details: 6 μmo/L, 24 hours, 10 μmol/L DCFH-DA, FIGS. 6 and 7
Description: Taking U87MG cell line as an example, 5×10^4 U87MG cells were added to a confocal dish and incubated overnight at 37° C. and 5% CO2; GSTP1-MT3(Fe^2+) and GSTP1-MT3(Co^2+) prepared in Example 3 were added to it (the final concentration was 6 μmo/L) and incubated again for 24 hours, and then washed with PBS for three times; then, 10 μmol/L DCFH-DA (ROS probe) was added, incubated at 37° C. for 30 minutes, and washed with PBS for three times; finally, confocal imaging was performed, and statistics was performed on the ROS content.

[1] = Body weight / toxicity during breast cancer treatment; format: in vivo, Balb/c mice; details: 100 μL of 30 pmol/L tail vein, 5 injections, vs PBS
Description: Taking the breast cancer of Balb/c mice as an example, 3×10^6 4T1 (stable transfected Luciferase) breast cancer cells were inoculated into Balb/c mice; when the tumor grew to 50-70 mm^3, 100 μL of 30 pmol/L GSTP1-MT3(Co^2+) was injected through the tail vein as the experimental group, and 100μL of PBS was injected through the tail vein as the control group. The injection was performed once every two days, that is, the tail vein injection was performed on the 3rd, 5th, 7th, 9th and 11th day of the experiment, respectively. A total of 5 injections were given. The weights of the mice and the size of the tumor were recorded at different time points.

With “GSTP1-MT3(Co^2+): Self-assembled protein nanoparticle of MT3-GGGGS-GSTP1 fusion protein (SEQ ID NO: 4) induced by Co^2+” the “ROS content in cells” value (U87MG cells) was “significantly increase”, the “body weights, experimental group vs control group” value [1] was “not much different” and the “toxic or side effects on mice” value [1] was “no obvious toxic or side effects”.
